The values that follow come from patent publication US20160024155A1 (published 2016).

Read-outs that look alike come from different tables or passages of the source.

As usually defined, the Kd is the constant that tells how readily two partners part at equilibrium.

Assay [1] has as its target T1, A/South Carolina/1/1918 (H1N1) hemagglutinin ectodomain (Influenza A virus A/South …).
In assay [2] the target is T1, A/South Carolina/1/1918 (H1N1) …. This is another data set of the same source.
The target is the same in assay [3]. This is another data set of the same source.
The target is the same in assay [4]. The source holds these as a separate data set.

B1: HB36.1 (Asp47Ser) (designed binder)
chain: MSNAMDGQQLNRLLLEWIGAWDPFGLGKDAYDVEAEAVLQAVYETESAFDLAMRIMWIYAFAFNRPIPFPHAQKLARRLLELKQAASSPLPLE
In the case of B1, in assay [1], the “fold increase in binding affinity relative to HB36” value was approximately 40 fold. Besides, the equilibrium dissociation constant (Kd) in assay [2] is 5 nM. In addition, in assay [3], the dissociation constant Kd fell in the range of 2 to 5 nM and the “fold increase in binding affinity relative to original design (HB36)” value was more than 10 fold.

B2: HB80.1 (Met26Thr, Asn36Lys) (designed binder)
chain: MASTRGSGRPWDFSENLAFELALAFTNKDTPDRWAKVAQYVSGRTPEEVKKHYEILVEDIKYIESGKVPFPNYRTTGGNMKTDEKRFRNLKIRLE
B2: the Kd in assay [2] and in assay [4] was 7.5 nM in each case.
